Laboratory results: the Immune Epitope Database (IEDB)

Assays:
HLA-A*30:01 [1] = assay: IEDB peptide-MHC binding, purified MHC/competitive/fluorescence; filed as Kd, often an IC50 or EC50 that approximates it; ≥ and ≤ were set here for values at or beyond the usual limits of such assays
HLA-B*08:01 [2] = assay: as above; settings: source organism: Mycobacterium tuberculosis CDC1551
HLA-A*02:01 [3] = assay: as above
HLA-A*02:06 [4] = assay: as above
HLA-B*46:01 = assay: IEDB peptide-MHC binding, purified MHC/direct/fluorescence; filed as Kd, often an IC50 or EC50 that approximates it; ≥ and ≤ were set here for values at or beyond the usual limits of such assays; settings: source organism: Mycobacterium tuberculosis
HLA-B*08:02 = assay: as above; settings: source organism: Mycobacterium tuberculosis CDC1551
HLA-B*15:01 [5] = assay: as above
HLA-B*15:17 [6] = assay: as above; settings: source organism: Mycobacterium tuberculosis
HLA-B*57:01 [7] = assay: as above; settings: source organism: Mycobacterium tuberculosis
HLA-B*27:05 [8] = assay: as above
HLA-B*51:01 = assay: as above; settings: source organism: Mycobacterium tuberculosis
HLA-B*48:01 = assay: as above; settings: source organism: Mycobacterium tuberculosis
HLA-B*07:02 = assay: as above
HLA-B*58:01 = assay: as above
HLA-A*31:01 = assay: as above
HLA-A*11:01 [9] = assay: as above
HLA-B*15:09 = assay: as above; settings: source organism: Mycobacterium tuberculosis CDC1551
HLA-A*69:01 = assay: as above
HLA-A*01:01 [10] = assay: as above
HLA-A*03:01 = assay: as above
HLA-B*40:01 = assay: as above
HLA-B*18:01 [11] = assay: as above; settings: source organism: Mycobacterium tuberculosis
HLA-A*02:17 = assay: IEDB peptide-MHC binding, purified MHC/competitive/radioactivity; filed as Kd, often an IC50 or EC50 that approximates it; ≥ and ≤ were set here for values at or beyond the usual limits of such assays
HLA-A*02:01 [12] = assay: as above
HLA-A*24:02 = assay: IEDB peptide-MHC binding, purified MHC/competitive/fluorescence; filed as Kd, often an IC50 or EC50 that approximates it; ≥ and ≤ were set here for values at or beyond the usual limits of such assays
HLA-B*27:05 [13] = assay: as above
HLA-A*30:01 [14] = assay: IEDB peptide-MHC binding, purified MHC/direct/fluorescence; filed as Kd, often an IC50 or EC50 that approximates it; ≥ and ≤ were set here for values at or beyond the usual limits of such assays
HLA-A*26:01 = assay: as above
HLA-A*24:03 = assay: as above
HLA-B*35:01 = assay: as above
HLA-B*08:01 [15] = assay: as above
HLA-A*02:01 [16] = assay: as above
HLA-A*02:03 [17] = assay: IEDB peptide-MHC binding, purified MHC/competitive/radioactivity; filed as Kd, often an IC50 or EC50 that approximates it; ≥ and ≤ were set here for values at or beyond the usual limits of such assays; settings: source organism: Dengue virus 2 Jamaica/1409/1983
HLA-A*02:06 [18] = assay: as above; settings: source organism: Dengue virus 2 Jamaica/1409/1983
HLA-B*15:01 [19] = assay: IEDB peptide-MHC binding, purified MHC/competitive/fluorescence; filed as Kd, often an IC50 or EC50 that approximates it; ≥ and ≤ were set here for values at or beyond the usual limits of such assays; settings: source organism: Human immunodeficiency virus 1
HLA-B*15:17 [20] = assay: as above; settings: source organism: Human immunodeficiency virus 1
HLA-B*57:01 [21] = assay: as above; settings: source organism: Human immunodeficiency virus 1
HLA-A*11:01 [22] = assay: as above; settings: source organism: Human immunodeficiency virus 1
HLA-A*01:01 [23] = assay: as above; settings: source organism: Human immunodeficiency virus 1
HLA-A*02:03 [24] = assay: as above; settings: source organism: Human immunodeficiency virus 1
HLA-B*18:01 [25] = assay: as above; settings: source organism: Human immunodeficiency virus 1
HLA-A*02:11 = assay: as above; settings: source organism: Pseudomonas putida F1
[26] = source organism: Mycobacterium tuberculosis CDC1551
[27] = source organism: Mycobacterium tuberculosis
[28] = source organism: Dengue virus 4 Philippines/H241/1956
[29] = source organism: Shigella boydii Sb227
[30] = source organism: Corynebacterium glutamicum
[31] = source organism: Dengue virus 2 Jamaica/1409/1983
[32] = source organism: Human immunodeficiency virus 1
[33] = source organism: Escherichia coli
[34] = source organism: Dengue virus 1 Singapore/S275/1990
[35] = source organism: Giardia lamblia ATCC 50803
[36] = source organism: Pseudomonas putida

Sequence: ALRSRWRAL
- Kd (HLA-A*30:01 [1]; [26]): 132 nM
- Kd (HLA-B*08:01 [2]): 14 nM
- Kd (HLA-A*02:01 [3]; [26]): ≥ 20000 nM
- Kd (HLA-A*02:06 [4]; [26]): 556 nM
- Kd (HLA-B*46:01): ≥ 20000 nM
- Kd (HLA-B*08:02): ≥ 20000 nM
- Kd (HLA-B*15:01 [5]; [27]): 504 nM
- Kd (HLA-B*15:17 [6]): ≥ 20000 nM
- Kd (HLA-B*57:01 [7]): ≥ 20000 nM
- Kd (HLA-B*27:05 [8]; [27]): ≥ 20000 nM
- Kd (HLA-B*51:01): ≥ 20000 nM
- Kd (HLA-B*48:01): ≥ 20000 nM
- Kd (HLA-B*07:02; [27]): 59.5 nM
- Kd (HLA-B*58:01; [27]): ≥ 20000 nM
- Kd (HLA-A*31:01; [27]): ≥ 20000 nM
- Kd (HLA-A*11:01 [9]; [27]): ≥ 20000 nM
- Kd (HLA-B*15:09): ≥ 20000 nM
- Kd (HLA-A*69:01; [27]): ≥ 20000 nM
- Kd (HLA-A*01:01 [10]; [27]): ≥ 20000 nM
- Kd (HLA-A*03:01; [27]): ≥ 20000 nM
- Kd (HLA-B*40:01; [27]): ≥ 20000 nM
- Kd (HLA-B*18:01 [11]): ≥ 20000 nM

Sequence: DLMEFIDGI
- Kd (HLA-A*02:17; [28]): 1970 nM
- Kd (HLA-A*02:01 [12]; [28]): 74.2 nM

Sequence: EYARQVQMI
- Kd (HLA-A*24:02; source organism: Vibrio vulnificus YJ016): ≤ 1 nM

Sequence: GLDDSALDA
- Kd (HLA-A*02:01 [3]; [29]): 402 nM
- Kd (HLA-A*02:06 [4]; [29]): 2100 nM

Sequence: GRADTKILF
- Kd (HLA-B*27:05 [13]; source organism: Influenza A virus (A/swine/Hong Kong/4/1976(H3N2))): 74.1 nM

Sequence: GRQAPTADV
- Kd (HLA-B*27:05 [13]; source organism: Escherichia coli str. K-12 substr. MG1655): 285 nM

Sequence: IVAWTRTAT
- Kd (HLA-A*30:01 [14]; [30]): ≥ 10000 nM
- Kd (HLA-B*15:01 [5]; [30]): ≥ 20000 nM
- Kd (HLA-A*26:01; [30]): ≥ 20000 nM
- Kd (HLA-A*24:03; [30]): 13100 nM
- Kd (HLA-B*27:05 [8]; [30]): ≥ 20000 nM
- Kd (HLA-B*07:02; [30]): 53.6 nM
- Kd (HLA-B*58:01; [30]): ≥ 20000 nM
- Kd (HLA-B*35:01; [30]): 893 nM
- Kd (HLA-A*31:01; [30]): ≥ 20000 nM
- Kd (HLA-A*11:01 [9]; [30]): ≥ 20000 nM
- Kd (HLA-B*08:01 [15]; [30]): 2720 nM
- Kd (HLA-A*69:01; [30]): ≥ 20000 nM
- Kd (HLA-A*01:01 [10]; [30]): ≥ 20000 nM
- Kd (HLA-A*02:01 [16]; [30]): ≥ 20000 nM
- Kd (HLA-A*03:01; [30]): ≥ 20000 nM
- Kd (HLA-B*40:01; [30]): ≥ 20000 nM

Sequence: IYLRRYFEI
- Kd (HLA-A*24:02; source organism: Escherichia coli E22): ≤ 0.1 nM

Sequence: IYNTVVLTI
- Kd (HLA-A*24:02; source organism: Vibrio parahaemolyticus AQ3810): 0.4 nM

Sequence: KLAEAIFKL
- Kd (HLA-A*02:17; [31]): 19.1 nM
- Kd (HLA-A*02:03 [17]): 8.68 nM
- Kd (HLA-A*02:06 [18]): 14.8 nM

Sequence: KSLYNTVAVLY
- Kd (HLA-A*30:01 [1]; [32]): 4780 nM
- Kd (HLA-B*15:01 [19]): ≥ 20000 nM
- Kd (HLA-B*15:17 [20]): 484 nM
- Kd (HLA-B*57:01 [21]): 4820 nM
- Kd (HLA-A*11:01 [22]): ≥ 20000 nM
- Kd (HLA-A*01:01 [23]): 4460 nM
- Kd (HLA-A*02:03 [24]): ≥ 20000 nM
- Kd (HLA-A*02:06 [4]; [32]): 300 nM
- Kd (HLA-B*18:01 [25]): 275 nM

Sequence: LAAPCRNAL
- Kd (HLA-A*30:01 [14]; [33]): ≥ 10000 nM
- Kd (HLA-B*15:01 [5]; [33]): 3730 nM
- Kd (HLA-A*26:01; [33]): ≥ 20000 nM
- Kd (HLA-A*24:03; [33]): ≥ 5000 nM
- Kd (HLA-B*27:05 [8]; [33]): ≥ 20000 nM
- Kd (HLA-B*07:02; [33]): 27.6 nM
- Kd (HLA-B*58:01; [33]): ≥ 20000 nM
- Kd (HLA-B*35:01; [33]): 25.6 nM
- Kd (HLA-A*31:01; [33]): ≥ 20000 nM
- Kd (HLA-A*11:01 [9]; [33]): ≥ 20000 nM
- Kd (HLA-B*08:01 [15]; [33]): 849 nM
- Kd (HLA-A*69:01; [33]): ≥ 20000 nM
- Kd (HLA-A*01:01 [10]; [33]): ≥ 20000 nM
- Kd (HLA-A*02:01 [16]; [33]): ≥ 20000 nM
- Kd (HLA-A*03:01; [33]): ≥ 20000 nM
- Kd (HLA-B*40:01; [33]): ≥ 20000 nM

Sequence: PYPYLFYKF
- Kd (HLA-A*24:02; source organism: Vibrio cholerae B33): ≤ 0.1 nM

Sequence: RLITANPIV
- Kd (HLA-A*02:17; [34]): 121 nM
- Kd (HLA-A*02:01 [12]; [34]): 61.3 nM

Sequence: RLLTKPWDV
- Kd (HLA-A*02:17; [31]): 1430 nM
- Kd (HLA-A*02:01 [12]; [31]): 27.6 nM

Sequence: RQVCFFSAT
- Kd (HLA-A*02:01 [3]; [35]): 3270 nM
- Kd (HLA-A*02:06 [4]; [35]): 6.3 nM

Sequence: VMTEGRHAV
- Kd (HLA-A*02:11): ≤ 1 nM
- Kd (HLA-B*15:01 [5]; [36]): 3700 nM
- Kd (HLA-A*26:01; [36]): ≥ 20000 nM
- Kd (HLA-A*24:03; [36]): ≥ 20000 nM
- Kd (HLA-B*27:05 [8]; [36]): ≥ 20000 nM
- Kd (HLA-B*07:02; [36]): 330 nM
- Kd (HLA-B*58:01; [36]): ≥ 20000 nM
- Kd (HLA-A*31:01; [36]): 991 nM
- Kd (HLA-A*11:01 [9]; [36]): ≥ 20000 nM
- Kd (HLA-B*08:01 [15]; [36]): 7120 nM
- Kd (HLA-A*69:01; [36]): 712 nM
- Kd (HLA-A*01:01 [10]; [36]): ≥ 20000 nM
- Kd (HLA-A*02:01 [16]; [36]): 409 nM
- Kd (HLA-A*03:01; [36]): ≥ 20000 nM
- Kd (HLA-B*40:01; [36]): ≥ 20000 nM
